# Assay: soluble on expression in E. coli; label from the status in PepcDB or PDB records
row,Sequence,soluble on expression in E. coli
1,MKTTYNRWWKKKVWFGRKDMSYKVIVDSCGEFTPEMKADGGFEHVALGIQIEDTQWTDDDSLKQEELLLKIAESTSCAKTSCPSPERYMESYHCDAERIYVVTLSAELSGSYNSAVLGKNLYEEEYGEKQIHVFNSRSASVGETLIALKVQQCEKAGMTFEEVVESVECYIEEQHTYFVLENLDTLRKNGRLTGIKSLVAGALNIKPIMGSTPQGTICQKEKARGMKKALVKMADCVAADVVNAGDKILAIAHCNCEERAKEVQRLLKERFAVKSSFIVDTSGISTVYANDGGIIVVV,soluble
2,MKVAGVDEAGRGPVIGPLVIGVAVIDEKNIERLRDIGVKDSKQLTPGQREKLFSKLIDILDDYYVLLVTPKEIDERHHSMNELEAEKFVVALNSLRIKPQKIYVDSADVDPKRFASLIKAGLKYEATVIAEHKADAKYEIVSAASIIAKVTRDREIEKLKQKYGEFGSGYPSDPRTKEWLEEYYKQYGDFPPIVRRTWETARKIEERFRKNQLTLDKFLK,soluble
3,MKVDGKHTRTIWLEADGWTVGTIDQRRLPHDYVVVKLTSSDDAADAIRTMLVRGAPLIGATAAYGMALAMREDASDAGLDAAYAKLVATRPTAINLKWALDEMRRALAPVQPADRVAAAYRRAGEIADEDVAINQAIGASGLKLIEAIAATKKPGERVNVLTHCNAGWLATVDWGTATAPIYQAFDAGIPIHVYADETRPRNQGASLTAWELGHHGVDHTVIPDNTGGHLMQHGLVDIVIVGTDRVTADGDVCNKIGTYLKALAAADNKVPFYVALPSPTIDFTIHDGVREIPIEQREAAEVTDMTGRTNDGRIETVRIVPQGSKVANYGFDVTPARLVTGLITERGVLKADRAALAAAFPERVAQAKELLRASAAALEHHHHHH,soluble
4,MKVDKRIEAVTKFLESLGTVEDYTEDVAVKYRNLILKSYELYENKYNDTVDDSLCIEVWSNGTYVVTNEDLSFDCESEEDLQKLKELFVNTSFYITINELNKVGHKATLSVKAKAKNLRKLGQLIKEYRSCNCKYLKDKVTEIIGDDGRVYLDRISERMD,not soluble
5,MKVEILPFGNMDQWVTREIKESGIIGGNTKKVYAIGPTETIVGAKPYANKGGSPWGTSNVMARVSGITKTNTSVFPETRGDGFCARLDTRMESVKVLGIVDITVLAAGSMFLGTVHEPIKSTKNPNKMLQMGIPFTDRPSAIQFDYKVKMSDRENRIRATGFSKITDVPGKDFPAVILLLQKRWEDAKGNVYAKRIGTMVNYYYHSTDWKNGSKYDIMYGDITKDPAYKAHMMRLQASEYFTVNSKGESVPIHEVAWGEADDVPTHMILQFTSSHGGAYIGSPGNSLYIDNVKLIYLEHHHHHH,soluble
6,MKVGIDAGGTLIKIVQEQDNQRTFKTELTKNIDQVVEWLNQQQIEKLCLTGGNAGVIAENINIPAQIFVEFDAASQGLGILLKEQGHDLADYIFANVGTGTSLHYFDGQSQRRVGGIGTGGGMIQGLGYLLSQITDYKQLTDMAQHGDRNTIDLKVRHIYKDTEPPIPGDLTAANFGHVLHHLDADFTPSNKLAAVIGVVGEVVTTMAITVAREFKTENIVYIGSSFHNNALLRKVVEDYTVLRGCKPYYVENGAFSGAIGALYLEKLEHHHHHH,soluble
7,MKVGINGFGRIGRQVFRILHSRGVEVALINDLTDNKTLAHLLKYDSIYHRFPGEVAYDDQYLYVDGKAIRATAVKDPKEIPWAEAGVGVVIESTGVFTDADKAKAHLEGGAKKVIITAPAKGEDITIVMGVNHEAYDPSRHHIISNASCTTNSLAPVMKVLEEAFGVEKALMTTVHSYTNDQRLLDLPHKDLRRARAAAINIIPTTTGAAKATALVLPSLKGRFDGMALRVPTATGSISDITALLKREVTAEEVNAALKAAAEGPLKGILAYTEDEIVLQDIVMDPHSSIVDAKLTKALGNMVKVFAWYDNEWGYANRVADLVELVLRKGV,soluble
8,MKVIKGLTAGLIFLFLCACGGQQIKDPLNYEVEPFTFQNQDGKNVSLESLKGEVWLADFIFTNCETICPPMTAHMTDLQKKLKAGNIDVRIISFSVDPENDKPKQLKKFAANYPLSFDNWDFLTGYSQSEIEEFALKSFKAIVKKPEGEDQVIHQSSFYLVGPDGKVLKDYNGVENTPYDDIISDVKSASTLK,soluble
9,MKVLPMLLALAVPGLCWAEDPQTFEGAGVVFEVQVEKNLVDIDHRLYRLPNSTVRNGMPSLFQVKPGSVVSYSGTVSQPWSTITDIYIHKQMSEQELAEMIEKEQPRQDGEEQPR,not soluble

# Source: the DeepSol protein solubility set
